The target of the test is T1, caspase-1 (Homo sapiens, UniProt P29466).
T1 sequence (P29466 120-297 limits assumed): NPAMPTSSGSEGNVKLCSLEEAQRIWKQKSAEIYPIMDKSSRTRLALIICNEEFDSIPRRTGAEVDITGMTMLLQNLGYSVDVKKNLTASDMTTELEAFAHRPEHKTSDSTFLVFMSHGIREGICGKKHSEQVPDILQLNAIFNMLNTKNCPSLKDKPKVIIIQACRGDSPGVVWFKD
T1 sequence (P29466 317-404 limits assumed): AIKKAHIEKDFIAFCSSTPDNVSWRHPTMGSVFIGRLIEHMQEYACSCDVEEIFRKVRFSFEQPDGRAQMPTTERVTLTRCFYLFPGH
Description: Caspase-1 treatment followed by HPLC analysis. The class given is biochemical. The note with it: treated with caspase-1, HPLC analysis, FIG. 2. How it is done:
Compound E1 obtained in Example 1, Compound E7 obtained in Example 7, and finasteride were prepared. Then, these compounds were treated with caspase-1, and analyzed with high performance liquid chromatography (HPLC). The results are illustrated in FIGS. 2 and 3.

From patent US11890364B2, “Composition for prevention or treatment of hair loss” (GOOD T CELLS, INC., priority 2017, dated 2024) come the findings set out here.

Ends that are not written are not given here.

Regarding “Compound E7: finasteride linked via caspase-1 cleavage site (YVAD) and linkers to CTP+cysteine peptide (SEQ ID NO: 6) (YGRRARRRRRRC; also: finasteride linked via caspase-1 cleavage site (YVAD) and linkers, attachment site not given here)”, the “cleavage of the compound on treatment with caspase-1 (HPLC)” value was “cleaved into two moieties, that is, finasteride and the protein transduction domain”.
